Measurements from paper PMC8660799, “Cryo-EM reveals unique structural features of the FhuCDB Escherichia coli ferrichrome importer” (Communications Biology, 2021).

Columns and labels:
FhuCB with FhuB E304A = target: T1, FhuCB with FhuB E304A (Escherichia coli, UniProt P07821 1-265; P06972 1-660, E304A, red-tris-NTA 2nd generation dye on the His-tag); assay: MST; 40 nM FhuCB (wild type or FhuB mutant) in detergent, His-tag labelled with red-tris-NTA 2nd generation dye; serial dilution of 1.6 μM FhuD with substrate ferrichrome; with ATP-Mg; Monolith NT.115pico, 20% LED power, medium MST power; details: both partners purified
T1 construct: FhuC, ATPase subunit, Escherichia coli; as in Dm2; FhuB, membrane subunit, Escherichia coli, 660 residues; Mutant made on the FhuCB-pET15b construct by direct mutagenesis; source: E. coli BL21(DE3) C43, purified (TALON, Superose 6 gel filtration) in LMNG; not shown: His-tag, N-terminal, kept; copies: 2 + 1
T1 sequence (looked up) 1: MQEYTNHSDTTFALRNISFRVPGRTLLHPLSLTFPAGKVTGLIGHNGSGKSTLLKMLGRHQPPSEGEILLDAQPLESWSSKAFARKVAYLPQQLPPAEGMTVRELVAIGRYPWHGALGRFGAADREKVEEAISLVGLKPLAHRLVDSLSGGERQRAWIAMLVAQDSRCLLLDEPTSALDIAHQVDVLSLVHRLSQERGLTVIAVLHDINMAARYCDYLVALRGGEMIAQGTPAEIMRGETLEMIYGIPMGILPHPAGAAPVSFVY
T1 sequence (looked up) 2: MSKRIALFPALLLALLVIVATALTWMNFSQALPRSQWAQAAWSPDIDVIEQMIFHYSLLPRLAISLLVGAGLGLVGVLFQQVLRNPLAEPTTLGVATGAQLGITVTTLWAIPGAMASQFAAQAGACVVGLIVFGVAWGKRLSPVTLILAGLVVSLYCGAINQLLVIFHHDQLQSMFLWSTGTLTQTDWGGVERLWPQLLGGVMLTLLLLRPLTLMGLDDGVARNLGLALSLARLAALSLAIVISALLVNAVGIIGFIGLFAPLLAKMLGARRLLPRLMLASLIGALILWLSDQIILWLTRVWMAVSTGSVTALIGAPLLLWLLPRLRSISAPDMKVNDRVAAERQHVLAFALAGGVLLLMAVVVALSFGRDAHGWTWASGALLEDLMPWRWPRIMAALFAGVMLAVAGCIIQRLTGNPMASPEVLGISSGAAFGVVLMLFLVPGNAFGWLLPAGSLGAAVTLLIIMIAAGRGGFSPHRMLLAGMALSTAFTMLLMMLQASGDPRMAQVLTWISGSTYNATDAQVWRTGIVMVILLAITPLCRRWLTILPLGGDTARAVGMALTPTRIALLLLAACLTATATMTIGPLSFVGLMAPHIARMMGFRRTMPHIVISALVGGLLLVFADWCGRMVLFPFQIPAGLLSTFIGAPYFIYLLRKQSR

FhuCB wild-type = target: T2, FhuCB wild-type (Escherichia coli, UniProt P07821 1-265; P06972 1-660, red-tris-NTA 2nd generation dye on the His-tag); assay: MST; 40 nM FhuCB in detergent, His-tag labelled with red-tris-NTA 2nd generation dye; serial dilution of 30 μM FhuD without substrate; with ATP-MgCl2; Monolith NT.115pico, 20% LED power, medium MST power; details: both partners purified
T2 construct: FhuC, ATPase subunit, Escherichia coli; whole operon cloned from the genome, FhuD gene deleted; thrombin site after the His-tag; FhuB, membrane subunit, Escherichia coli, 660 residues; also called FhuCB subcomplex; source: E. coli BL21(DE3) C43, purified (TALON, Superose 6 gel filtration) in LMNG; not shown: His-tag, N-terminal, kept; copies: 2 + 1
T2 sequence (looked up) 1: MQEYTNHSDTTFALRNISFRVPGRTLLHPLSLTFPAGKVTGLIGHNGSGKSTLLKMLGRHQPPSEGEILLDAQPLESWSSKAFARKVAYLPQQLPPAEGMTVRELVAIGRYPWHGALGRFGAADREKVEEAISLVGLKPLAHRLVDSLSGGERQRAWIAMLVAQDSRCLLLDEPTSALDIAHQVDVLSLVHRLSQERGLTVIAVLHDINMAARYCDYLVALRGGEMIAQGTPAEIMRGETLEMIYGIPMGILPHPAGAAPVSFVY
T2 sequence (looked up) 2: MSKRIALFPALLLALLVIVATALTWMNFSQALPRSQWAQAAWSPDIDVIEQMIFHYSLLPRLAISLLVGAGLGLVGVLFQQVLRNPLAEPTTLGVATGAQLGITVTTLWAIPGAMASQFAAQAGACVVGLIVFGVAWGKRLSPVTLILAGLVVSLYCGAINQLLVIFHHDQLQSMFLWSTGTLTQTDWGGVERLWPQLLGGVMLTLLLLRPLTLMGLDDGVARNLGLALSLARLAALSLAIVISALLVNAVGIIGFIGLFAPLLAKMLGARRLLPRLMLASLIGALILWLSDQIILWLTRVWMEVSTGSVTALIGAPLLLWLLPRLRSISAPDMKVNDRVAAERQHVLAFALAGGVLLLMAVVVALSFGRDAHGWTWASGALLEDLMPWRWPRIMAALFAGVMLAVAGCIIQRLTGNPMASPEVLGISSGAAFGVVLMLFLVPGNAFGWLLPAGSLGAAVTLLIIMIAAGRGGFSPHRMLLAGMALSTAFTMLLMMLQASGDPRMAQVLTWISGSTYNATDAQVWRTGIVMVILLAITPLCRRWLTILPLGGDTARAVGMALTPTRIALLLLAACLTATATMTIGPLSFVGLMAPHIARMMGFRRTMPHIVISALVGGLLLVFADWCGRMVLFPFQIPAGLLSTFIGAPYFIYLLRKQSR

B1: FhuD (natural protein, Escherichia coli)
chain: AAIDPNRIVALEWLPVELLLALGIVPYGVADTINYRLWVSEPPLPDSVIDVGLRTEPNLELLTEMKPSFMVWSAGYGPSPEMLARIAPGRGFNFSDGKQPLAMARKSLTEMADLLNLQSAAETHLAQYEDFIRSMKPRFVKRGARPLLLTTLIDPRHMLVFGPNSLFQEILDEYGIPNAWQGETNFWGSTAVSIDRLAAYKDVDVLCFDHDNSKDMDALMATPLWQAMPFVRAGRFQRVPAVWFYGATLSAMHFVRVLDNAIGGKA
notes: In 'FhuD-ferrichrome' the protein was loaded with the small molecule ferrichrome; also called FhuD-ferrichrome (when loaded with ferrichrome)
Kd (FhuCB with FhuB E304A): 15.1 nM | Kd (FhuCB wild-type): 270 nM
